The test has as its target T1, human CD116 soluble antigen (His-tag form) (human, UniProt P15509 23-320).
T1 construct: extracellular domain; expressed in Expi293F cells; also called hCD116-His
T1 sequence (looked up): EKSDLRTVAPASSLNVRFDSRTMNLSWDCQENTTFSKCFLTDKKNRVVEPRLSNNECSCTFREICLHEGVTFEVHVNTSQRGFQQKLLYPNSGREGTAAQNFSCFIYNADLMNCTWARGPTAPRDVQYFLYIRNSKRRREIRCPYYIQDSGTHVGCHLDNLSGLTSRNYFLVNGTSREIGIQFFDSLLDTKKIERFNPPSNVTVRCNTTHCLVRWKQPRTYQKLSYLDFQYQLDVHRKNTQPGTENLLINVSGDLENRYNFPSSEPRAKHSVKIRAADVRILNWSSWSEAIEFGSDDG
Kind of test: screening by ELISA on biotinylated antigen and by flow cytometry, E. coli supernatant. In general terms: An ELISA detects its analyte on a solid surface through an enzyme-linked reagent.

Substitutions are numbered along the chain they refer to.

Description: Using the obtained monoclonal Escherichia coli culture supernatant, screening for clones that bind to both human CD116 and monkey CD116 was performed by ELISA and FCM described below.
In screening by ELISA, a MAXISORP plate (manufactured by NUNC Corporation) was immobilized with streptavidin (manufactured by Thermo Fisher Scientific) and blocked using 1% BSA-PBS (manufactured by Nacalai Tesque, Inc.), and then the biotinylated human CD116 soluble antigen (His-tag form) or the biotinylated monkey CD116 soluble antigen (His-tag form) binds thereto. Each Escherichia coli culture supernatant was added to each well of the plate and allowed to react for 60 minutes at room temperature, and then each well was washed 3 times with PBS-T.
Next, HRP-labeled Goat poly, anti-human IgG F(ab′)₂ (manufactured by Abcam) was diluted 1000 times with 1% BSA-PBS, and 50 μL thereof was added to each well, followed by incubating at room temperature for 30 minutes. After washing the microplate 3 times with PBS-T, 50 μL of TMB color developing substrate solution (manufactured by DAKO) was added to each well, followed by incubating at room temperature for 10 minutes. A 2N HCl solution (50 μL/well) was added to each well to stop the color developing reaction, and an absorbance at a wavelength of 450 nm (reference wavelength: 570 nm) was measured using a plate reader (EnSpire: manufactured by PerkinElmer).

B1: 116-413 (Fab, V domains shown)
VH: QVQLVQSGAEVKKPGASVKVSCKVSGYTLTDLSMHWVRQAPGKGLEWMGGFDPEDGETIYAQKFQGRVTMTEDTSTDTAYMELSSLRSEDTAVYYCATGLFYYQYGMDVWGQGTTVTVSS
VL: not shown
notes: phage library clone, E. coli culture supernatant
B1: the binding result was “binds”.

B2: 116-398 (Fab, V domains shown)
VH: B1 VH with Q1E, T30A, D31E, T58R, T76K, A97T, T115M
VL: not shown
notes: phage library clone, tested as E. coli culture supernatant (FLAG-His tag)
B2: the binding result was “binds”.

B3: 116-435 (Fab, V domains shown)
VH: B1 VH with Q1E, D31E, T58R
VL: not shown
notes: as for B1
On to B3, for which the binding result was “binds”.

B4: 116-412 (Fab, V domains shown)
VH: B1 VH with Q1E, F51L, T115L
VL: not shown
notes: as for B1
B4: the binding result is given as “binds”.

B5: 116-421 (Fab, V domains shown)
VH: B1 VH with V5Q, T58R, S75A, Y95H
VL: not shown
notes: as for B1
On to B5, for which the binding result is listed as “binds”.

B6: 116-433 (Fab, V domains shown)
VH: B1 VH with L32F, S33A, M34I, T58R, A97T, T115L
VL: not shown
notes: as for B1
Take B6: the binding result is “binds”.

B7: 116-466 (Fab, V domains shown)
VH: B1 VH with T58R, G66D, T115L
VL: not shown
notes: as for B1
On to B7, for which the binding result is “binds”.

B8: 116-464 (Fab, V domains shown)
VH: B1 VH with T58R, V93M
VL: not shown
notes: as for B1
Regarding B8, the binding result is reported as “binds”.

B9: 116-439 (Fab, V domains shown)
VH: B1 VH with V5Q, T58R, T115L
VL: not shown
notes: as for B1
B9: the binding result was “binds”.

B10: 116-463 (Fab, V domains shown)
VH: B1 VH with L32F, S33A, M34I, T58R
VL: not shown
notes: as for B1
For the molecule B10, the binding result was “binds”.

B11: 116-465 (Fab, V domains shown)
VH: B1 VH with T28P, K43E, F51S, M70V, S85N
VL: not shown
notes: as for B1
In the case of B11, the binding result was “binds”.
